Measurements: IntAct's records for PubMed 31515488
Values belong to the substance of their own block, whether it stands above or below them.

How the values were obtained:
cep63_human CEP63 = cep63_human CEP63 (UniProt Q96MT8)
mare1_human MAPRE1 = mare1_human MAPRE1 (UniProt Q15691)
lmo4_human LMO4 = lmo4_human LMO4 (UniProt P61968)
prp31_human PRPF31 = prp31_human PRPF31 (UniProt Q8WWY3)
ut14c_human UTP14C = ut14c_human UTP14C (UniProt Q5TAP6)
sdcb1_human SDCBP = sdcb1_human SDCBP (UniProt O00560)
txnd5_human TXNDC5 = txnd5_human TXNDC5 (UniProt Q8NBS9)
hem1_human ALAS1 = hem1_human ALAS1 (UniProt P13196)
fsd2_human FSD2 = target: T1, fsd2_human FSD2 (UniProt A1L4K1)
T1 sequence: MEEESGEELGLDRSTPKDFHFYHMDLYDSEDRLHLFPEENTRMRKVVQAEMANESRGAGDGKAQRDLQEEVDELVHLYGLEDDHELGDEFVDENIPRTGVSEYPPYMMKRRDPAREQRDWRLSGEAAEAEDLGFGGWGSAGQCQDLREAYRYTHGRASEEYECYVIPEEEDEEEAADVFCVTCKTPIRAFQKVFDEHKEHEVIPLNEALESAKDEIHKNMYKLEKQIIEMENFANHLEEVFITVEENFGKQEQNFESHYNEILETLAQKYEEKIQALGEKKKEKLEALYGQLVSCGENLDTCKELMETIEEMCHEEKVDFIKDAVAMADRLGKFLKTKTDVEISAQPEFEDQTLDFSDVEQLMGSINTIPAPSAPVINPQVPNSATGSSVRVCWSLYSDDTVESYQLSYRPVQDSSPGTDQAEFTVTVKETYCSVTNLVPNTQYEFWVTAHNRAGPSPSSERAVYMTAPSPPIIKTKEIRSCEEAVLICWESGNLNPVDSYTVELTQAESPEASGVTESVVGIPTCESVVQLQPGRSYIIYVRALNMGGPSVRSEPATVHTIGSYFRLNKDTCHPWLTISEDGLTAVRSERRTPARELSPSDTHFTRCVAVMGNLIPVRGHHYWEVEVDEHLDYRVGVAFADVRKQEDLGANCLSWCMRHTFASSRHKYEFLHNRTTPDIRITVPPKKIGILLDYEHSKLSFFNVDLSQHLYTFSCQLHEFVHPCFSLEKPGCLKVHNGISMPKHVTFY

goga2_human GOLGA2 = target: T2, goga2_human GOLGA2 (UniProt Q08379)
T2 sequence: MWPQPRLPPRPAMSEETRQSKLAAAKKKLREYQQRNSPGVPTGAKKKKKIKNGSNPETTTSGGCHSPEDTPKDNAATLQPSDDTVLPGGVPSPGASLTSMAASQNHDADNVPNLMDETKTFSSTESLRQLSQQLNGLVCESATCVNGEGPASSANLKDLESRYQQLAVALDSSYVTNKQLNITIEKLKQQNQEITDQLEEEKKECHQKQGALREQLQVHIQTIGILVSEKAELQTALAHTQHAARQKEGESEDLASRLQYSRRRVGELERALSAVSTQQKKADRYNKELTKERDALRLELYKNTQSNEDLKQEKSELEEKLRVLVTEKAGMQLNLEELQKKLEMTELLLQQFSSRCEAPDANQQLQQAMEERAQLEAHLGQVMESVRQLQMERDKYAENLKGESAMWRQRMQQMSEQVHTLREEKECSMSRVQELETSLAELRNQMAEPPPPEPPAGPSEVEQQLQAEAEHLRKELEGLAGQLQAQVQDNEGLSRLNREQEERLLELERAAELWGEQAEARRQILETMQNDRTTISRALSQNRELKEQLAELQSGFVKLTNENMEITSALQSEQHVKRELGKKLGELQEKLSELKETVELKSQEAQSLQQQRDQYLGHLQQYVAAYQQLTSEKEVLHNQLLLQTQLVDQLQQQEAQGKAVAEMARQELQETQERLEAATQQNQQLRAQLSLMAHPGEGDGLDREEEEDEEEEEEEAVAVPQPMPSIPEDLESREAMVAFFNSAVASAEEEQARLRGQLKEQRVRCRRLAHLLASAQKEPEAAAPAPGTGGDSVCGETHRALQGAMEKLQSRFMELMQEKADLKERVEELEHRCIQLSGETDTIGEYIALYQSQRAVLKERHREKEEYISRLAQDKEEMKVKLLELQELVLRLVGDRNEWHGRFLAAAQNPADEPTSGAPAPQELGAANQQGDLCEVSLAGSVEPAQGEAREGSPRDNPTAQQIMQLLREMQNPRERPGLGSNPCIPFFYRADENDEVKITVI

mtus2_human MTUS2 = mtus2_human MTUS2 (UniProt Q5JR59)
fxl18_human FBXL18 = fxl18_human FBXL18 (UniProt Q96ME1)
mycd_human MYOCD = target: T3, mycd_human MYOCD (UniProt Q8IZQ8)
T3 sequence: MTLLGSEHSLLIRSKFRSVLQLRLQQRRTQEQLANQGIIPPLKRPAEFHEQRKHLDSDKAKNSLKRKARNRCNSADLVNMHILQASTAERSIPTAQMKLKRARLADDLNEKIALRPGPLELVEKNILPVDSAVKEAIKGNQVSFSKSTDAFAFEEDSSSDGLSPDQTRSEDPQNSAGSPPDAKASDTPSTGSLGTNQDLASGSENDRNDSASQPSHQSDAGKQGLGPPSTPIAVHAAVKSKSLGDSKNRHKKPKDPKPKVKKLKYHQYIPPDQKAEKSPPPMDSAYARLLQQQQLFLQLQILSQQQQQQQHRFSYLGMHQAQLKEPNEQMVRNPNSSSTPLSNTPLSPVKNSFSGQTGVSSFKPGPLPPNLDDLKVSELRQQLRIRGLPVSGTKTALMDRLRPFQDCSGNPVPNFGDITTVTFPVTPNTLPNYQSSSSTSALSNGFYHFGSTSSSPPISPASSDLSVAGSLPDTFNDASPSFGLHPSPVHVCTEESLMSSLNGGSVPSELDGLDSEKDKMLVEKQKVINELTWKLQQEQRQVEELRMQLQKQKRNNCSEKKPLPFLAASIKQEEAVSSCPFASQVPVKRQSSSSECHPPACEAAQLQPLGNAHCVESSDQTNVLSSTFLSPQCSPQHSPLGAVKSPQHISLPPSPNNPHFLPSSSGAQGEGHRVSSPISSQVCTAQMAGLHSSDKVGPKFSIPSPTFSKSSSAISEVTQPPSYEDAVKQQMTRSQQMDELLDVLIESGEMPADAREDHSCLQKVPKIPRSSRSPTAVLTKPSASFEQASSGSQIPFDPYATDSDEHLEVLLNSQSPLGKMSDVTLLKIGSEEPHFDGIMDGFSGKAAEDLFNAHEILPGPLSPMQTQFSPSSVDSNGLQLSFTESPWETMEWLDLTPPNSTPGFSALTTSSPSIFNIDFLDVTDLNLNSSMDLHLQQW

vtnc_human VTN = vtnc_human VTN (UniProt P04004)
gt253_human CERCAM = gt253_human CERCAM (UniProt Q5T4B2)
ppla_human PLN = ppla_human PLN (UniProt P26678)
mal_human MAL = mal_human MAL (UniProt P21145)
sc22a_human SEC22A = sc22a_human SEC22A (UniProt Q96IW7)
vatl_human ATP6V0C = vatl_human ATP6V0C (UniProt P27449)
emp3_human EMP3 = emp3_human EMP3 (UniProt P54852)
traf1_human TRAF1 = traf1_human TRAF1 (UniProt Q13077)
TSC22D4 = TSC22D4 (UniProt Q9Y3Q8)
erep1_human ENTREP1 = erep1_human ENTREP1 (UniProt Q15884)
pdli7_human PDLIM7 = pdli7_human PDLIM7 (UniProt Q9NR12)
hnrl1_human HNRNPUL1 = hnrl1_human HNRNPUL1 (UniProt Q9BUJ2)

prp31_human PRPF31, sequence (Q8WWY3 whole entry): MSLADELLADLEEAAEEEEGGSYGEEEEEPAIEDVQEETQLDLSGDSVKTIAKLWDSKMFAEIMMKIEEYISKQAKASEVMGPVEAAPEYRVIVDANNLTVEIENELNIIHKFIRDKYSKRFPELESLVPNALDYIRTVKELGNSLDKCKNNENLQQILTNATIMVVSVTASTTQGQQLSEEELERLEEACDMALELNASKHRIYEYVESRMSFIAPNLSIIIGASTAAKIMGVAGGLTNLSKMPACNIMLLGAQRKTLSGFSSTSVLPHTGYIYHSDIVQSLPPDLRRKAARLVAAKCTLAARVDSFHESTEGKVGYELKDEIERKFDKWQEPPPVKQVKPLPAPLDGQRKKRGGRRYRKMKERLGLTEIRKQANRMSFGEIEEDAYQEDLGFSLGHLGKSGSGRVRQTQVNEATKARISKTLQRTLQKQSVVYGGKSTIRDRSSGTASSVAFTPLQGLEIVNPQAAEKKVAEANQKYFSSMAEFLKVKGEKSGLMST
mare1_human MAPRE1, sequence (Q15691 whole entry): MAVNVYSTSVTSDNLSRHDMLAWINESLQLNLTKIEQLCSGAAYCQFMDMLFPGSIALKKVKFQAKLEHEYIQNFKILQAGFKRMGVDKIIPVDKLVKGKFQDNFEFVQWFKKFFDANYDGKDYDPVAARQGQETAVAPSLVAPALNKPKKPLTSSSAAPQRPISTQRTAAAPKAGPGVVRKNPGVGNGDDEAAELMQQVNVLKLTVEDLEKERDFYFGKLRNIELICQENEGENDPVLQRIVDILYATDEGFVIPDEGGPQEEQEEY
Ectodysplasin-A (Homo sapiens), Q92838 R153H, sequence (Q92838 whole entry R153H): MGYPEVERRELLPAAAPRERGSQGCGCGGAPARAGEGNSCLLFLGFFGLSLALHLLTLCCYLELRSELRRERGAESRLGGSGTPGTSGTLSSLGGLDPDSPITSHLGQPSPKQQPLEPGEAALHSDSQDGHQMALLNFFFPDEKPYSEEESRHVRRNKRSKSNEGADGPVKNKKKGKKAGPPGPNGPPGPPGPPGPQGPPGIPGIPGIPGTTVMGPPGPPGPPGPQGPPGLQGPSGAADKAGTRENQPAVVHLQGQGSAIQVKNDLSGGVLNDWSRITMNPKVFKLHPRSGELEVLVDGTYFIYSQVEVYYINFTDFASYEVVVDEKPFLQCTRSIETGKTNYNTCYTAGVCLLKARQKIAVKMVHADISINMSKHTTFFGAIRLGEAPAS
ut14c_human UTP14C, sequence (Q5TAP6 whole entry): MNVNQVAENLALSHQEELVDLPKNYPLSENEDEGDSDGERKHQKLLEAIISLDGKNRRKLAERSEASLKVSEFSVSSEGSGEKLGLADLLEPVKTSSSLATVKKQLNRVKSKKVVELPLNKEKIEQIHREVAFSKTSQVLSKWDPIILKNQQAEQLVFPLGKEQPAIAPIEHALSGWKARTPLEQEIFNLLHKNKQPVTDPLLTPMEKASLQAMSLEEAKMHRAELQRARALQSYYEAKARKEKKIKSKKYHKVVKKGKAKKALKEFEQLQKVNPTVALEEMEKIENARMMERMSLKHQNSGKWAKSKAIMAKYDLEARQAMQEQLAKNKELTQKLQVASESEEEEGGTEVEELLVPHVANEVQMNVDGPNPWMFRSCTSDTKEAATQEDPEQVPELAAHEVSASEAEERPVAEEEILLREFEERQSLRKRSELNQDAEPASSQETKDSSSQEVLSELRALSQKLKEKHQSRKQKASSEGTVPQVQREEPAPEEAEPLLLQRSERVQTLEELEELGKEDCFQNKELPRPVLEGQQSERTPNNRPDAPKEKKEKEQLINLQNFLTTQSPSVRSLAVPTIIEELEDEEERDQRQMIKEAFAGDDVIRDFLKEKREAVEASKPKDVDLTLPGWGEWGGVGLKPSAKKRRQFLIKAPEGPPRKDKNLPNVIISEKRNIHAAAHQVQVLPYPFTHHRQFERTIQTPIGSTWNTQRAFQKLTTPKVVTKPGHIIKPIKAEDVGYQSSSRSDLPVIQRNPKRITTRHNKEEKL
sdcb1_human SDCBP, sequence (O00560 whole entry): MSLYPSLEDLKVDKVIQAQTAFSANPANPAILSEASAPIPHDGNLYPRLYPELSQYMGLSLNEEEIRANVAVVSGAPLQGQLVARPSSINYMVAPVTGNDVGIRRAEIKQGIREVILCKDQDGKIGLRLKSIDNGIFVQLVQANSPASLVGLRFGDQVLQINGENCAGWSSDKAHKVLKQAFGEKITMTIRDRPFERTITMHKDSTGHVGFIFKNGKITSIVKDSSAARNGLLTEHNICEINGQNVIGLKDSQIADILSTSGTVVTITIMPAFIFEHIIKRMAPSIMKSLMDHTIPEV
fxl18_human FBXL18, sequence (Q96ME1 whole entry): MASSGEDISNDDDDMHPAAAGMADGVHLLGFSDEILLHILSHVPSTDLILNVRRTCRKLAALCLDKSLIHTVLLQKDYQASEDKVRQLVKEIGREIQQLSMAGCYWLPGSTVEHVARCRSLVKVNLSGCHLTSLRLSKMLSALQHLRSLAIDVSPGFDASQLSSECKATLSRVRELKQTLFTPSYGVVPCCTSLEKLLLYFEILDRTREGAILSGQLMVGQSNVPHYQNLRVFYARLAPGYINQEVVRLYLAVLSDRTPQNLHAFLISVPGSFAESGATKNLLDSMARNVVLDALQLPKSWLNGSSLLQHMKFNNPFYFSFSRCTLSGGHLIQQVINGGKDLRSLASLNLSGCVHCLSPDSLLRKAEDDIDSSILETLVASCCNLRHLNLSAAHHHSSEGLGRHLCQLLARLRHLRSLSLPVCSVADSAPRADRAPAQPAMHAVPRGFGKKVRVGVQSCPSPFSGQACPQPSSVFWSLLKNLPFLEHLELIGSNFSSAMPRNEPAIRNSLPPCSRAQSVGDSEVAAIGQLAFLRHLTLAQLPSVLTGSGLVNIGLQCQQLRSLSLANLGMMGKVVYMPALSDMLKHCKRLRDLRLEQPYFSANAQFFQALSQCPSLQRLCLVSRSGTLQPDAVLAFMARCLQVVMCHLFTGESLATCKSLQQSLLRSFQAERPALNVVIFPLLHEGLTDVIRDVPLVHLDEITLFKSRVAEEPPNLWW
lmo4_human LMO4, sequence (P61968 whole entry): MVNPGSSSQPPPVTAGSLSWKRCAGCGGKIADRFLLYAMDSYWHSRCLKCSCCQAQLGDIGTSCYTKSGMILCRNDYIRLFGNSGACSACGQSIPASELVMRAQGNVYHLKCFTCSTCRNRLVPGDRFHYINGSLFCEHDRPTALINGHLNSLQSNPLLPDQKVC
Ectodysplasin-A (Homo sapiens), Q92838 A367T, sequence (Q92838 whole entry A367T): as the sequence (Q92838 whole entry R153H) above, with H153R, A367T counted along it
mtus2_human MTUS2, sequence (Q5JR59 whole entry): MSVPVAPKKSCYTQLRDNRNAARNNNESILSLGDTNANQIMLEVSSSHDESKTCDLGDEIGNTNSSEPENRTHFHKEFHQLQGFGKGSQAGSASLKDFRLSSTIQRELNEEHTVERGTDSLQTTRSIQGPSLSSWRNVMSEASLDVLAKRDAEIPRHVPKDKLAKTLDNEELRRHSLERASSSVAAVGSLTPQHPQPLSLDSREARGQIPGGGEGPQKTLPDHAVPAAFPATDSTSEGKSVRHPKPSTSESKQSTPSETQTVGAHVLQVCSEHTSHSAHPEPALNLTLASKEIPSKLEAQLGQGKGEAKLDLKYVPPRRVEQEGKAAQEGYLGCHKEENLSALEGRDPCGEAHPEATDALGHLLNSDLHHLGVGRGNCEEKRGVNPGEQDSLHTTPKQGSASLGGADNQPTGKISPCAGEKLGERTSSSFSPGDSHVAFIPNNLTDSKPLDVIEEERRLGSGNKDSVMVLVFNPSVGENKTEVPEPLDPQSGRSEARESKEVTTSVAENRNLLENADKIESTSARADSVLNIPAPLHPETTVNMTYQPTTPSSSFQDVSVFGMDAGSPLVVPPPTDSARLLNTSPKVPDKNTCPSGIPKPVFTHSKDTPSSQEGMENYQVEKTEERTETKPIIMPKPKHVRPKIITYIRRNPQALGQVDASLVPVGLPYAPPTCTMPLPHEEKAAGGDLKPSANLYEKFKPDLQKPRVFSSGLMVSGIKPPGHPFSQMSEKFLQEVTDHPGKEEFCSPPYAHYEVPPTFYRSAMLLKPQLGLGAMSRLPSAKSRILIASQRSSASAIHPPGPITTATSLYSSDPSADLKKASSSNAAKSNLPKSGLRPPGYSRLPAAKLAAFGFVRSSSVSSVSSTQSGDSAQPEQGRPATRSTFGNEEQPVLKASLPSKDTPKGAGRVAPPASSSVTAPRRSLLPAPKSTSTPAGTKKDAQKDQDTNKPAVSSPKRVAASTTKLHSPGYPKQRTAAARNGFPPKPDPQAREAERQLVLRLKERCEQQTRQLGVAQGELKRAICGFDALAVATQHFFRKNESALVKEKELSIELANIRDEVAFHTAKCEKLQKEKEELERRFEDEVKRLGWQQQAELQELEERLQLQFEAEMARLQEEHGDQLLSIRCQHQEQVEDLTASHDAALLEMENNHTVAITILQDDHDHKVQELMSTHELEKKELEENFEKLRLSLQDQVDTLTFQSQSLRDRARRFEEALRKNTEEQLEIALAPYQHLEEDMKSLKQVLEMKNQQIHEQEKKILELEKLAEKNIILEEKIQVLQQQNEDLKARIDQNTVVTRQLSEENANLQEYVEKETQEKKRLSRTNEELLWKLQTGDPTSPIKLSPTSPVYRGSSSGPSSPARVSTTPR
txnd5_human TXNDC5, sequence (Q8NBS9 whole entry): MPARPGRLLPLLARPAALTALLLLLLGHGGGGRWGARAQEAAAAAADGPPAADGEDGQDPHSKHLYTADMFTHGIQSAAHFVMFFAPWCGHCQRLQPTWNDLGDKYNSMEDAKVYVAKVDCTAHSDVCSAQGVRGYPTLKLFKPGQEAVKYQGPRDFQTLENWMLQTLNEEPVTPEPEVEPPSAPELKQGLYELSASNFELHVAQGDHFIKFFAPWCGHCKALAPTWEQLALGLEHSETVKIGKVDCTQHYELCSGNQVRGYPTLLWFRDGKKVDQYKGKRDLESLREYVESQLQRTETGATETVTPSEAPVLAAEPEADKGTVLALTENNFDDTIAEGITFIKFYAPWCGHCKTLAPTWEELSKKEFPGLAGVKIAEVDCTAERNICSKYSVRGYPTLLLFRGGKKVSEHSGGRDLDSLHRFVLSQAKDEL

Substance: Histone-lysine N-methyltransferase EZH2 (Homo sapiens), Q15910-2 N640K
effect of a mutation on the interaction (cep63_human CEP63): with no effect

Substance: Mannose-1-phosphate guanylyltransferase catalytic subunit beta (Homo sapiens), Q9Y5P6 H126D
effect of a mutation on the interaction (txnd5_human TXNDC5): with no effect

Substance: Parafibromin (Homo sapiens) (from UniProt Q6P1J9) R156H
effect of a mutation on the interaction (hem1_human ALAS1): with no effect | effect of a mutation on the interaction (fsd2_human FSD2): with no effect | effect of a mutation on the interaction (goga2_human GOLGA2): with no effect

Substance: Zinc finger protein 224 (Homo sapiens), Q9NZL3 Q447H
effect of a mutation on the interaction (mtus2_human MTUS2): with no effect

Substance: Golgi-associated PDZ and coiled-coil motif-containing protein (Homo sapiens) (from UniProt Q9HD26) G53E
effect of a mutation on the interaction (mycd_human MYOCD): disrupting interaction strength | effect of a mutation on the interaction (vtnc_human VTN): disrupting interaction strength | effect of a mutation on the interaction (gt253_human CERCAM): disrupting interaction strength

Substance: Myomegalin (Homo sapiens), Q5VU43 I612T
effect of a mutation on the interaction (mare1_human MAPRE1): with no effect | effect of a mutation on the interaction (lmo4_human LMO4): with no effect | effect of a mutation on the interaction (prp31_human PRPF31): with no effect | effect of a mutation on the interaction (ut14c_human UTP14C): with no effect | effect of a mutation on the interaction (sdcb1_human SDCBP): with no effect

Substance: Ectodysplasin-A (Homo sapiens), Q92838 A367T
effect of a mutation on the interaction (ppla_human PLN): with no effect | effect of a mutation on the interaction (mal_human MAL): with no effect | effect of a mutation on the interaction (sc22a_human SEC22A): with no effect | effect of a mutation on the interaction (vatl_human ATP6V0C): with no effect | effect of a mutation on the interaction (emp3_human EMP3): with no effect

Substance: Zinc finger protein 502 (Homo sapiens), Q8TBZ5 E243A
effect of a mutation on the interaction (traf1_human TRAF1): with no effect

Substance: Nuclear receptor-binding protein (Homo sapiens), Q9UHY1 P432L
effect of a mutation on the interaction (TSC22D4): with no effect

Further lines, results first:

effect of a mutation on the interaction (mare1_human MAPRE1): with no effect | effect of a mutation on the interaction (lmo4_human LMO4): with no effect | effect of a mutation on the interaction (prp31_human PRPF31): with no effect | effect of a mutation on the interaction (ut14c_human UTP14C): with no effect | effect of a mutation on the interaction (sdcb1_human SDCBP): with no effect
Substance: Myomegalin (Homo sapiens), Q5VU43 M783I

effect of a mutation on the interaction (hem1_human ALAS1): disrupting interaction strength | effect of a mutation on the interaction (fsd2_human FSD2): disrupting interaction strength | effect of a mutation on the interaction (goga2_human GOLGA2): disrupting interaction strength
Substance: Parafibromin (Homo sapiens) (from UniProt Q6P1J9) L95P

effect of a mutation on the interaction (hem1_human ALAS1): with no effect | effect of a mutation on the interaction (fsd2_human FSD2): with no effect | effect of a mutation on the interaction (goga2_human GOLGA2): with no effect
Substance: Parafibromin (Homo sapiens) (from UniProt Q6P1J9) R147C

effect of a mutation on the interaction (fxl18_human FBXL18): with no effect
Substance: NEDD4-like E3 ubiquitin-protein ligase WWP2 (Homo sapiens), O00308 R178Q

effect of a mutation on the interaction (mare1_human MAPRE1): with no effect | effect of a mutation on the interaction (lmo4_human LMO4): with no effect | effect of a mutation on the interaction (prp31_human PRPF31): with no effect | effect of a mutation on the interaction (ut14c_human UTP14C): with no effect | effect of a mutation on the interaction (sdcb1_human SDCBP): with no effect
Substance: Myomegalin (Homo sapiens), Q5VU43 E391A

effect of a mutation on the interaction (mtus2_human MTUS2): with no effect
Substance: Zinc finger protein 224 (Homo sapiens), Q9NZL3 K640E

effect of a mutation on the interaction (TSC22D4): with no effect
Substance: Nuclear receptor-binding protein (Homo sapiens), Q9UHY1 V365I

effect of a mutation on the interaction (cep63_human CEP63): with no effect
Substance: Histone-lysine N-methyltransferase EZH2 (Homo sapiens), Q15910-2 R288Q

effect of a mutation on the interaction (txnd5_human TXNDC5): with no effect
Substance: Mannose-1-phosphate guanylyltransferase catalytic subunit beta (Homo sapiens), Q9Y5P6 R158Q

effect of a mutation on the interaction (ppla_human PLN): with no effect | effect of a mutation on the interaction (mal_human MAL): with no effect | effect of a mutation on the interaction (sc22a_human SEC22A): with no effect | effect of a mutation on the interaction (vatl_human ATP6V0C): with no effect | effect of a mutation on the interaction (emp3_human EMP3): with no effect
Substance: Ectodysplasin-A (Homo sapiens), Q92838 R153H

effect of a mutation on the interaction (erep1_human ENTREP1): with no effect | effect of a mutation on the interaction (fxl18_human FBXL18): with no effect | effect of a mutation on the interaction (pdli7_human PDLIM7): with no effect | effect of a mutation on the interaction (hnrl1_human HNRNPUL1): with no effect
Substance: NEDD4-like E3 ubiquitin-protein ligase WWP2 (Homo sapiens), O00308 R215W

effect of a mutation on the interaction (erep1_human ENTREP1): with no effect | effect of a mutation on the interaction (fxl18_human FBXL18): with no effect | effect of a mutation on the interaction (pdli7_human PDLIM7): with no effect | effect of a mutation on the interaction (hnrl1_human HNRNPUL1): with no effect
Substance: NEDD4-like E3 ubiquitin-protein ligase WWP2 (Homo sapiens), O00308 H401R
